Measured values: patent publication US20250313634A1 (WUXI BIOLOGICS SHANGHAI, published 2025)

Columns and labels:
Experiment in all cases: capture ELISA on coated 1.14.4; relative to silent alanine substitutions
[1] = biological target: T1, hPD-L1_ECD.His point mutant S169A (human, UniProt Q9NZQ7 19-238)
T1 construct: extracellular domain
Protocol: (§1) After interacting with the supernatant that contains quantified PD-L1 mutant or human/mouse PD-L1_ECD.His protein (Sino Biological, China), HRP conjugated anti-His antibody (1:5000; Rockland Immunochemicals, Pottstown, PA) was added as detection antibody. Absorbance was normalized according to the average of control mutants. After setting an additional cutoff to the binding fold change (<0.55), the final determined epitope residues were identified.
(§2) The observed binding reductions most probably resulted from the instability or even collapse of hPD-L1 structure after alanine substitutions. After setting an additional cutoff to the binding fold change (<0.55), the final determined epitope residues were listed in Table 3.

[2] = biological target: T2, hPD-L1_ECD.His point mutant T181A (human, UniProt Q9NZQ7 19-238)
T2 construct: extracellular domain
T2 sequence (Q9NZQ7 19-238 T181A): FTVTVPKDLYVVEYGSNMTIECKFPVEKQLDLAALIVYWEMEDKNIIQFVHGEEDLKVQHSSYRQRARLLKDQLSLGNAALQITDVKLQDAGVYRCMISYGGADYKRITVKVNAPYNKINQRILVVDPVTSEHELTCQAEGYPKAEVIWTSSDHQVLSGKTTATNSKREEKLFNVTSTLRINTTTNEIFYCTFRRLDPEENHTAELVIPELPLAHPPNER
Protocol: as §1, §2

[3] = biological target: T3, hPD-L1_ECD.His point mutant L214A (human, UniProt Q9NZQ7 19-238)
T3 construct: extracellular domain
T3 sequence (Q9NZQ7 19-238 L214A): as the sequence (Q9NZQ7 19-238 T181A) above, with A163T, L196A counted along it
Protocol: as §1, §2

[4] = biological target: T4, hPD-L1_ECD.His point mutant R86A (human, UniProt Q9NZQ7 19-238)
T4 construct: extracellular domain
T4 sequence (Q9NZQ7 19-238 R86A): as the sequence (Q9NZQ7 19-238 T181A) above, with R68A, A163T counted along it
Protocol: as §1, §2

[5] = biological target: T5, hPD-L1_ECD.His point mutant Q77A (human, UniProt Q9NZQ7 19-238)
T5 construct: extracellular domain
T5 sequence (Q9NZQ7 19-238 Q77A): as the sequence (Q9NZQ7 19-238 T181A) above, with Q59A, A163T counted along it
Protocol: as §1, §2

[6] = biological target: T6, hPD-L1_ECD.His point mutant M59A (human, UniProt Q9NZQ7 19-238)
T6 construct: extracellular domain
T6 sequence (Q9NZQ7 19-238 M59A): as the sequence (Q9NZQ7 19-238 T181A) above, with M41A, A163T counted along it
Protocol: as §1, §2

[7] = biological target: T7, hPD-L1_ECD.His point mutant N135A (human, UniProt Q9NZQ7 19-238)
T7 construct: extracellular domain
T7 sequence (Q9NZQ7 19-238 N135A): as the sequence (Q9NZQ7 19-238 T181A) above, with N117A, A163T counted along it
Protocol: as §1, §2

[8] = biological target: T8, hPD-L1_ECD.His point mutant L142A (human, UniProt Q9NZQ7 19-238)
T8 construct: extracellular domain
T8 sequence (Q9NZQ7 19-238 L142A): as the sequence (Q9NZQ7 19-238 T181A) above, with L124A, A163T counted along it
Protocol: as §1, §2

[9] = biological target: T9, hPD-L1_ECD.His point mutant I38A (human, UniProt Q9NZQ7 19-238)
T9 construct: extracellular domain
T9 sequence (Q9NZQ7 19-238 I38A): as the sequence (Q9NZQ7 19-238 T181A) above, with I20A, A163T counted along it
Protocol: as §1, §2

[10] = biological target: T10, hPD-L1_ECD.His point mutant K62A (human, UniProt Q9NZQ7 19-238)
T10 construct: extracellular domain
T10 sequence (Q9NZQ7 19-238 K62A): as the sequence (Q9NZQ7 19-238 T181A) above, with K44A, A163T counted along it
Protocol: as §1, §2

[11] = biological target: T11, hPD-L1_ECD.His point mutant E60A (human, UniProt Q9NZQ7 19-238)
T11 construct: extracellular domain
T11 sequence (Q9NZQ7 19-238 E60A): as the sequence (Q9NZQ7 19-238 T181A) above, with E42A, A163T counted along it
Protocol: as §1, §2

[12] = biological target: T12, hPD-L1_ECD.His point mutant V128A (human, UniProt Q9NZQ7 19-238)
T12 construct: extracellular domain
T12 sequence (Q9NZQ7 19-238 V128A): as the sequence (Q9NZQ7 19-238 T181A) above, with V110A, A163T counted along it
Protocol: as §1, §2

[13] = biological target: T13, hPD-L1_ECD.His point mutant V225A (human, UniProt Q9NZQ7 19-238)
T13 construct: extracellular domain
T13 sequence (Q9NZQ7 19-238 V225A): as the sequence (Q9NZQ7 19-238 T181A) above, with A163T, V207A counted along it
Protocol: as §1, §2

[14] = biological target: T14, hPD-L1_ECD.His point mutant A232G (human, UniProt Q9NZQ7 19-238)
T14 construct: extracellular domain
T14 sequence (Q9NZQ7 19-238 A232G): as the sequence (Q9NZQ7 19-238 T181A) above, with A163T, A214G counted along it
Protocol: as §1, §2

[15] = biological target: T15, hPD-L1_ECD.His point mutant F19A (human, UniProt Q9NZQ7 19-238)
T15 construct: extracellular domain
T15 sequence (Q9NZQ7 19-238 F19A): as the sequence (Q9NZQ7 19-238 T181A) above, with F1A, A163T counted along it
Protocol: as §1, §2

[16] = biological target: T16, hPD-L1_ECD.His point mutant V21A (human, UniProt Q9NZQ7 19-238)
T16 construct: extracellular domain
T16 sequence (Q9NZQ7 19-238 V21A): as the sequence (Q9NZQ7 19-238 T181A) above, with V3A, A163T counted along it
Protocol: as §1, §2

[17] = biological target: T17, hPD-L1_ECD.His point mutant G33A (human, UniProt Q9NZQ7 19-238)
T17 construct: extracellular domain
T17 sequence (Q9NZQ7 19-238 G33A): as the sequence (Q9NZQ7 19-238 T181A) above, with G15A, A163T counted along it
Protocol: as §1, §2

[18] = biological target: T18, hPD-L1_ECD.His point mutant H78A (human, UniProt Q9NZQ7 19-238)
T18 construct: extracellular domain
T18 sequence (Q9NZQ7 19-238 H78A): as the sequence (Q9NZQ7 19-238 T181A) above, with H60A, A163T counted along it
Protocol: as §1, §2

[19] = biological target: T19, hPD-L1_ECD.His point mutant V44A (human, UniProt Q9NZQ7 19-238)
T19 construct: extracellular domain
T19 sequence (Q9NZQ7 19-238 V44A): as the sequence (Q9NZQ7 19-238 T181A) above, with V26A, A163T counted along it
Protocol: as §1, §2

[20] = biological target: T20, hPD-L1_ECD.His point mutant K25A (human, UniProt Q9NZQ7 19-238)
T20 construct: extracellular domain
T20 sequence (Q9NZQ7 19-238 K25A): as the sequence (Q9NZQ7 19-238 T181A) above, with K7A, A163T counted along it
Protocol: as §1, §2

[21] = biological target: T21, hPD-L1_ECD.His point mutant I206A (human, UniProt Q9NZQ7 19-238)
T21 construct: extracellular domain
T21 sequence (Q9NZQ7 19-238 I206A): as the sequence (Q9NZQ7 19-238 T181A) above, with A163T, I188A counted along it
Protocol: as §1, §2

[22] = biological target: T22, hPD-L1_ECD.His point mutant T102A (human, UniProt Q9NZQ7 19-238)
T22 construct: extracellular domain
T22 sequence (Q9NZQ7 19-238 T102A): as the sequence (Q9NZQ7 19-238 T181A) above, with T84A, A163T counted along it
Protocol: as §1, §2

[23] = biological target: T23, hPD-L1_ECD.His point mutant T179A (human, UniProt Q9NZQ7 19-238)
T23 construct: extracellular domain
T23 sequence (Q9NZQ7 19-238 T179A): as the sequence (Q9NZQ7 19-238 T181A) above, with T161A, A163T counted along it
Protocol: as §1, §2

[24] = biological target: T24, hPD-L1_ECD.His point mutant E31A (human, UniProt Q9NZQ7 19-238)
T24 construct: extracellular domain
T24 sequence (Q9NZQ7 19-238 E31A): as the sequence (Q9NZQ7 19-238 T181A) above, with E13A, A163T counted along it
Protocol: as §1, §2

[25] = biological target: T25, hPD-L1_ECD.His point mutant R82A (human, UniProt Q9NZQ7 19-238)
T25 construct: extracellular domain
T25 sequence (Q9NZQ7 19-238 R82A): as the sequence (Q9NZQ7 19-238 T181A) above, with R64A, A163T counted along it
Protocol: as §1, §2

[26] = biological target: T26, hPD-L1_ECD.His point mutant S117A (human, UniProt Q9NZQ7 19-238)
T26 construct: extracellular domain
T26 sequence (Q9NZQ7 19-238 S117A): as the sequence (Q9NZQ7 19-238 T181A) above, with S99A, A163T counted along it
Protocol: as §1, §2

T1 sequence (Q9NZQ7 19-238 S169A): as the sequence (Q9NZQ7 19-238 T181A) above, with S151A, A163T counted along it

B1: 1.14.4 (antibody, V domains shown)
VH: EVQLLESGGGLVQPGGSLRLSCAASGFTFSSYAMSWVRQAPGKGLEWVSGISGSGGFTYYADSVKGRFTISRDNSKNTLYLQMNSLRAEDTAVYYCAKPPRGYNYGPFDYWGQGTLVTVSS
VL: SYVLTQPPSVSVAPGQTARITCGGNNIGSKSVHWYQQKPGQAPVLVVYDDSDRPSGIPERFSGSNSGNTATLTISRVEAGDEADYYCQVWDSSSDHVVFGGGTKLTVL
notes: Fully human monoclonal antibody with a human constant region of IgG4 isotype
With B1 the fold change [1] was 0.939 fold, the fold change [2] was 0.947 fold and the fold change [3] was 0.958 fold. It also gave a fold change [4] of 1 fold, a fold change [5] of 1.01 fold and a fold change [6] of 1.01 fold. The fold change [7] was 1.03 fold, the fold change [8] was 1.05 fold and the fold change [9] was 1.13 fold. It also gave a fold change [10] of 0.169 fold, a fold change [11] of 0.547 fold and a fold change [12] of 0.701 fold. For the same binder, the fold change [13] was 0.749 fold, the fold change [14] was 0.756 fold and the fold change [15] was 0.78 fold. For the same binder, the fold change [16] was 0.803 fold, the fold change [17] was 0.807 fold and the fold change [18] was 0.821 fold. It also gave a fold change [19] of 0.837 fold, a fold change [20] of 0.857 fold and a fold change [21] of 0.876 fold. The fold change [22] was 0.887 fold, the fold change [23] was 0.893 fold and the fold change [24] was 0.908 fold. For the same binder, the fold change [25] was 0.934 fold and the fold change [26] was 0.935 fold.
